Reference: patent publication US20030148447A1

Legend:
[1] = target: MPL-zalpha11 chimera (MPL extracellular and transmembrane domains fused to the zalpha11 intracellular signaling domain) (human); assay: cell-based or functional assay
[2] = target: factor present in the activated CD3+ selected human T-cell conditioned media; assay: cell-based or functional assay

## thrombopoietin (TPO) (ligand)
[1]
  proliferation of BaF3/MPL-zalpha11 cells (Alamar Blue), fold over background (fold over background): 10

## zalpha11-Fc4 soluble receptor (zalpha11 extracellular domain fused C-terminally to human IgG Fc, Fc4) (from UniProt Q9HBE5 20-237) (Fc fusion)
[2]
  inhibition of conditioned-medium-driven BaF3/Zalpha11 cell growth; soluble receptor concentration giving complete inhibition: 10 µg/mL
  titration of soluble receptor; lowest concentration completely inhibiting BaF3/Zalpha11 growth: 1.5 µg/mL
